Measured values from PMC2990405.

Molecular target: Canonical-type transient receptor potential cation channel type 3 (TRPC3) (rabbit (endogenous in skeletal muscle))
Assay: co-IP

For “GST-JP2 fragment F1-3 (a.a. 143-215) (from UniProt Q9ET78 143-215) (domain or fragment)”, the ratio of GST-band/TRPC3-band intensities normalised to F1-1 (set as 1) was 0.25.
